The supplement of paper PMC10567573

B1: KCNAB2 (parent)
chain: SSIIHEIDSILGNKPYSKKDYRS
B2: INTS3 (parent)
chain: FHPIKETVVEEPVDITPYLDQLDE

Variants of: B1
Assay: protein stability index of a GFP-peptide fusion (GPS, HEK-293T) (PSI 1-6); higher = more stable
Details: c terminus: native
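Further: lentivirally expressed fusions sorted by FACS into six bins by GFP to DsRed ratio, PSI derived from sequencing read proportions per bin multiplied by bin number.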

Protein stability index of substitutions, site by site:
S1: G 3.04 | D 3.67 | E 2.82 | A 2.43 | F 2.06 | C 2.47

Variants of: B2
Assay: as above
Details: c terminus: a fixed tail appended

Protein stability index, by site and new letter:
Y18: M 3.58 | H 3.5 | L 3.88 | P 3.23 | F 3.79 | V 3.87 | R 3.58 | S 3.77 | C 3.47 | G 3.69 | A 3.58 | T 3.71 | K 3.77
L19: R 3.14 | H 3.18 | F 3.02 | W 2.56 | E 4.34 | C 3.21 | S 3.98 | Y 3.2 | N 3.66 | A 3.21 | I 3.12 | D 3.24 | V 4.03 | K 3.24 | M 2.86 | Q 2.72 | G 3.32
V13: C 3.08 | D 3.83 | R 2.58 | I 3.4 | Q 3.25 | P 2.43 | T 3.8 | M 3 | F 3.05 | K 3.05 | G 3.27 | H 3.32 | E 3.34 | N 3.42 | A 3.61 | W 2.92
E10: N 2.59 | L 2.69 | I 2.08 | Y 1.8 | R 2.1 | S 2.54 | D 3.24 | H 2.56 | K 1.84 | C 2.19 | V 2.12 | F 1.54
T16: I 3.41 | R 2.84 | M 3.73 | N 3.18 | V 3.14 | L 3.05 | C 3.09 | F 3.2 | D 3.79 | W 2.33 | K 3.45 | Y 2.77 | A 3.91
D14: W 1.63 | I 2.9 | E 3.18 | L 2.91 | Q 2.91 | N 3.04 | K 3.13 | T 3.18 | G 2.42 | M 2.14 | F 1.93 | H 3.11
F1: E 5.2 | Q 5.65 | K 5.66 | V 5.44 | Y 3.3 | D 5.78 | S 5.58 | M 5.23 | L 5.28 | A 5.42 | P 5.74 | R 5.18 | T 5.54
I15: Q 3.79 | C 3.49 | M 2.86 | K 3.86 | L 3.25 | T 4.26 | W 2.39 | E 4.59 | N 2.32 | F 2.4 | V 3.98 | R 4.13 | Y 3.3 | H 3.03 | A 3.43 | D 4.18
P3: C 3.23 | L 3.14 | D 4.79 | F 2.52 | Q 3.78 | V 4.19 | I 2.66 | G 4.49 | K 4.82 | T 3.43 | E 5 | S 4.03 | M 2.9 | Y 2.75 | N 4.63
P12: R 3.01 | F 3.65 | C 3.03 | M 2.65 | T 3.18 | E 3.52 | A 2.99 | Q 3.52 | Y 2.81 | K 3.04 | I 2.93
Q21: R 2.71 | Y 2.5 | G 3.56 | E 3.62 | S 2.82 | D 3.51 | K 3.05 | H 3.26 | M 3.42 | V 4.05
T7: L 2.7 | I 3.06 | D 3.85 | R 3.04 | Q 3.26 | F 2.32 | G 4.18 | A 3.73 | V 3.12 | C 2.66 | K 2.91 | P 3.31 | H 3.35
V8: H 3.19 | W 2.54 | P 3.73 | T 3.53 | L 3.56 | K 3.49 | M 2.95 | E 4.18 | S 3.38 | I 2.88
D20: Y 2.08 | L 2.28 | M 2.02 | V 2.11 | P 2 | H 3 | A 3.11 | S 3.3 | K 2.78 | T 2.94 | Q 2.41
K5: P 4.29 | H 4.67 | R 3.9 | Q 3.35 | C 3.99 | W 2.15 | N 4.8 | L 3.87 | V 4.17 | S 4.99 | T 4.29 | G 4.4 | E 5.06 | A 4.47 | D 4.86 | F 3.73
V9: Y 2.97 | Q 3.77 | S 3.25 | F 2.65 | T 3.22 | N 3.81 | K 3.3 | C 2.89 | D 3.62 | I 3.04 | E 4.25 | M 3.69 | A 3.72 | R 3.08 | P 3.62
H2: W 4.2 | A 4.34 | T 4.62 | Q 4.7 | G 5.35 | M 4.87 | V 2.16 | R 4.81 | P 5.03 | K 5.24 | Y 4.63 | L 4.87 | E 5.26 | I 3.71 | C 4.11
P17: I 2.49 | M 3.17 | F 3.08 | Q 3.52 | D 3.58 | R 2.39 | E 3.89 | Y 3.75 | N 3.19 | C 3.17 | A 3.25 | W 3.61 | V 3.21
E11: M 2.93 | H 2.87 | S 2.81 | P 2.95 | R 2.49 | L 2.76 | T 2.54 | A 2.73 | F 1.92 | Q 3.53 | I 1.77 | N 2.98 | Y 2.51 | C 2.78 | W 2.11
D23: K 2.39 | L 2.21 | A 2.35 | N 2.8 | S 2.68 | P 3.02 | I 2.06 | R 2.63 | T 3.08 | Q 3.02 | V 2.3 | M 2.22 | Y 2.18 | W 1.8 | C 2.48 | G 2.59
E24: H 2.66 | V 2.99 | Q 2.7 | C 2.77 | R 2.33 | W 1.84 | Y 2.47 | M 2.83 | L 2.85 | T 3.09 | K 2.42 | A 2.58 | N 3.17 | F 1.93
I4: E 4.06 | A 2.98 | R 3.17 | S 3.87 | H 4.1 | Q 3.83 | V 3.82 | F 3.4 | C 3.31 | K 3.08 | L 3.85 | G 4.25 | M 4.2 | N 3.85
E6: I 1.57 | L 1.9 | R 1.98 | S 2.52 | N 2.67 | G 3.04 | P 2.89 | W 1.91 | T 3.28 | C 1.78 | Y 1.75 | Q 2.1 | K 2.34 | M 2
L22: Y 3.16 | Q 4.11 | C 3.82 | G 3.41 | R 3.71 | W 2.73 | M 2.57 | P 3.61 | V 3.41 | F 3.03 | H 3.5 | T 3.38 | E 3.68 | S 3.13
